We go through 3 molecules from article PMC4772501 (The Journal of Cell Biology, 2016).

B3: (His)6Spr3 (natural protein)
chain: MKSKGSRLSTDCPVEFPKIVSGFAEEVKIRRQSSQGQYAVDSHPPKSPELKHRRQRSSSFVNGKCRNRDLPLLDNKKAQEINTNSHGQDIGIKNLPRQRELLNAKNGIDFTLMVAGQSGLGKTTFINSLFSTSLIDDDIKENKPIIRYKSIVEGDGTHLNFNVIDTPGFGNNMDNAFTWRTMVNYIDEEIRSYIFQEEQPDRTKMVDNRVHCCLYFLRPSNKGIDTLDVVTMKKLAKRVNLIPVIAKSDLLTKEELKNFKTQVREIIRVQDIPVCFFFGDEVLNATQDIFQKYPFSIIASNEYIFNEKGEKVKGRQYKWGAVDIENEKYCDFKILQKTIFDWNLIDLVESTEDYYEKCRSEMLRTRLLKARDCLTTKSVDITEEQRKFLEEEMNFDEIEENKLKNYKCYEIINKTVMDKVATEWDPEFITRQLEAKKKFNELSNREISKFRDWKKSLFMEQENFNQEIEQLNHKLENLQLECQDLEYKLLIGKSSNSHSTDSATLVNVHIKR

The target of series [1] is B3. Kind of series: pull-down.
Series [2] has as its target T1, Cdc3 (S. cerevisiae, UniProt P32457 1-520).
T1 sequence: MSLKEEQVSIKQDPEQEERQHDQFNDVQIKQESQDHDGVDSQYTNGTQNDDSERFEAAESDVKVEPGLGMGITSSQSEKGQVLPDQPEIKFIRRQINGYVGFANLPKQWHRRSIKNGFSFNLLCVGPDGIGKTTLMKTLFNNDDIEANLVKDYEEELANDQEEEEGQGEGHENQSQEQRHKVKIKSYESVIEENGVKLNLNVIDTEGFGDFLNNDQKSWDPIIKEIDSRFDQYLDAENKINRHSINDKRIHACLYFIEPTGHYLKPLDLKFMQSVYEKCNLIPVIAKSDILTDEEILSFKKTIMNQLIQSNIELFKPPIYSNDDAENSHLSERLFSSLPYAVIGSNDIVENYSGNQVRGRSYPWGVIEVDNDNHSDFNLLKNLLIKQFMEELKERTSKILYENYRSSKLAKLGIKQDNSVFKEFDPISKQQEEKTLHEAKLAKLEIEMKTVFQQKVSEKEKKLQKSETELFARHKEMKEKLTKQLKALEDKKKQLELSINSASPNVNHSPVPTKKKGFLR
Briefly: negative-stain EM, single-particle class averages.

Series [3] deals with the molecule itself. Kind of series: negative-stain EM, single-particle class averages.
The target of series [4] is B3. Kind of series: negative-stain EM, single-particle class averages.
In series [5] the target is T1, Cdc3. Briefly: pull-down.

B1: Cdc10 (natural protein)
chain: MDPLSSVQPASYVGFDTITNQIEHRLLKKGFQFNIMVVGQSGLGKSTLINTLFASHLIDSATGDDISALPVTKTTEMKISTHTLVEDRVRLNINVIDTPGFGDFIDNSKAWEPIVKYIKEQHSQYLRKELTAQRERFITDTRVHAILYFLQPNGKELSRLDVEALKRLTEIANVIPVIGKSDTLTLDERTEFRELIQNEFEKYNFKIYPYDSEELTDEELELNRSVRSIIPFAVVGSENEIEINGETFRGRKTRWSAINVEDINQCDFVYLREFLIRTHLQDLIETTSYIHYEGFRARQLIALKENANSRSSAHMSSNAIQR
B1: the binding result (with (His)6Spr3 [1]; with Cdc3 [2]; in series [3]) was “binds” each time.

B2: Spr28 (natural protein)
chain: MFPMKDHSALEQHTLSRDELRRRKGYKKGLQLSILLLGEKGSGKSTFLNNLCGQDISLSDGDYDDDDDKVTNNVTPENGNAIEDIDPGYKTAHLSPGLKLVTRRVYLNDELGVPITLDIILFPGCGDNVDNSQSSVVIKNYLDQQFANVLKEEVRIKRNTKETDGRPHVCLYFLKSTPRGVKKFDIELMKTICDKVNLIPIIPKADGLTETELNLHKDIVRQEISQNNIRVFDFKSDTLGETLALYDMDIDSSSAKSKYDNDTKIKEISPFAIVCSKTFNKNSENRVEHIRTYEWGSLVVEDQNTSDFIYLKAILLGSHLQELKDVTNNVLYENYRAKVLTEKKNNYDIPNYSYIDETSRGSVSNVSTRRNSASRTLGNPDTNDENAYQIHKEIDEKNRIIEDYQRKIDLLEKMLAAPHQNKV
With B2, in the series with (His)6Spr3 [4], the binding result is “binds”. As to B3, in the series with Cdc3 [5], the binding result is reported as “binds”.
